According to patent US20140072613A1 (published 2014):

T1: TAO1(h) (human, UniProt Q7L7X3 1-314, limits assumed)
T1 sequence (looked up): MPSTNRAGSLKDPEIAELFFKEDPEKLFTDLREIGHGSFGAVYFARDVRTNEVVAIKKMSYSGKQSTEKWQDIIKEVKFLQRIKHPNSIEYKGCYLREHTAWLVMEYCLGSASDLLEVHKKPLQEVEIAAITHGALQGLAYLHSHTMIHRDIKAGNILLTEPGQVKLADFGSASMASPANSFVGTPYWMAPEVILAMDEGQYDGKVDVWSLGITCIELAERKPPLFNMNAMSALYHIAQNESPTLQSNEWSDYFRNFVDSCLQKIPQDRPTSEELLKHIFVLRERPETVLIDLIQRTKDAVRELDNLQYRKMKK

T2: TAK1(h) (human, UniProt O43318 1-303, limits assumed)
T2 sequence (looked up): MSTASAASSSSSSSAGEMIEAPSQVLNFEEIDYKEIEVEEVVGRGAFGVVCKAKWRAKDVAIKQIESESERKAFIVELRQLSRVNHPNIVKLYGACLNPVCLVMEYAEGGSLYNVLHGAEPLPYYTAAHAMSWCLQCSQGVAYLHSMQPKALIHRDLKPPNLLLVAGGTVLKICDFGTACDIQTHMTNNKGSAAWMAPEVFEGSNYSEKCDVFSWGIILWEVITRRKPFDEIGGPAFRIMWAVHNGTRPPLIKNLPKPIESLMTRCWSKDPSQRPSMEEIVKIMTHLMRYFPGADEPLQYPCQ

T3: ALK4(h) (human, UniProt P36896 150-505, limits assumed)
T3 sequence (looked up): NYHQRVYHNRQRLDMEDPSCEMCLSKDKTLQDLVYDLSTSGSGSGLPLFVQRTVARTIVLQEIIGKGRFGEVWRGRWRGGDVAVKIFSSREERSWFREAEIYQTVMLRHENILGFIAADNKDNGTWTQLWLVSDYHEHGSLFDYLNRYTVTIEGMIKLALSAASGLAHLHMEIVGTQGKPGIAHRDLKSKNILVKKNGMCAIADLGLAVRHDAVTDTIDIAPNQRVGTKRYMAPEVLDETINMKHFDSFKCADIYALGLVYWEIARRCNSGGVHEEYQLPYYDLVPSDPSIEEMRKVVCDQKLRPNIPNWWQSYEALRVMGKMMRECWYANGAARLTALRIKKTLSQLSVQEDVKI

T4: Axl(h) (human, UniProt P30530 473-894, limits assumed)
T4 sequence (looked up): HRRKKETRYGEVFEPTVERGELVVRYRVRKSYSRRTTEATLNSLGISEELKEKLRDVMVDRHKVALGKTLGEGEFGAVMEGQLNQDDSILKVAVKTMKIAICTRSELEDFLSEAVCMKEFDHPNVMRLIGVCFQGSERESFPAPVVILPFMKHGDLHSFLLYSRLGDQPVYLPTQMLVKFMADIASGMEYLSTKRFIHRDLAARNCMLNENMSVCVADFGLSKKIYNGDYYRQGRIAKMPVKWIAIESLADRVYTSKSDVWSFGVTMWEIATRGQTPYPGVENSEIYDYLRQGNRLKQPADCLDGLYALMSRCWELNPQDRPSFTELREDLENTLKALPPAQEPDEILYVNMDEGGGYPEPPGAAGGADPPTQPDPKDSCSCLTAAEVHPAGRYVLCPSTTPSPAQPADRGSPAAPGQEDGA

T5: DMPK(h) (human, UniProt Q09013 1-629, limits assumed)
T5 sequence (looked up): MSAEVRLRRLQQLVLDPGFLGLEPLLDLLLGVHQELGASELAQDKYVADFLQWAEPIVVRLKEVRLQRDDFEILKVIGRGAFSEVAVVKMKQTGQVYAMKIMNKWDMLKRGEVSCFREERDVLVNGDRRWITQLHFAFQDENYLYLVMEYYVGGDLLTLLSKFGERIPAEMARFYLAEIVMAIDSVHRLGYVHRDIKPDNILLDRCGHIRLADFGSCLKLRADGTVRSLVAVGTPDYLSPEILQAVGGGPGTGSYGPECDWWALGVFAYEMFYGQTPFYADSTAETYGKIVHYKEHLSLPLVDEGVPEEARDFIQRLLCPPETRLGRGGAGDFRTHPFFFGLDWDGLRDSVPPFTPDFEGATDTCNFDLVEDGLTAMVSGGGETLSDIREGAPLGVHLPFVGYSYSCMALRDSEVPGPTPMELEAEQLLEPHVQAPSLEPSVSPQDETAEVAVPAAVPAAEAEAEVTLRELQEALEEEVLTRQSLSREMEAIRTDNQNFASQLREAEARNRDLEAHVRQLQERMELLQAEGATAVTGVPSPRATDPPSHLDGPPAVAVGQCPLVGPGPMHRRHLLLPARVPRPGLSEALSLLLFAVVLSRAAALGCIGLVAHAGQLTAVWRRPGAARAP

T6: EphA5(h) (human, UniProt P54756 595-1037, limits assumed)
T6 sequence (looked up): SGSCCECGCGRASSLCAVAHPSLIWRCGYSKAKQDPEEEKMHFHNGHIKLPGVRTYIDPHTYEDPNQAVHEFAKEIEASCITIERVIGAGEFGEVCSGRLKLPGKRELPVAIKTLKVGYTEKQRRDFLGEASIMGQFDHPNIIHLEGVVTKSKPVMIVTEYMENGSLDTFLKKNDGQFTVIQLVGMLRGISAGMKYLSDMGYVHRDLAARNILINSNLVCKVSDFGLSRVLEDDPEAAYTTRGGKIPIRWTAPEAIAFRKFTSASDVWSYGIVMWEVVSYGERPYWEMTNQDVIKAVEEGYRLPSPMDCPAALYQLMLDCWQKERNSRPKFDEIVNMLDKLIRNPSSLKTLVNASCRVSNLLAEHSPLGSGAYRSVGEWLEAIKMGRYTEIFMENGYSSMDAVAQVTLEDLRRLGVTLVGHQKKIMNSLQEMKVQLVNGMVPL


Legend:
Test in all cases: cell-based or functional assay
[1] = biological target: T1, TAO1(h)
[2] = biological target: Hck(h) activated (human, UniProt P08631 251-518, limits assumed)
Hck(h) activated, sequence (P08631 251-518 limits assumed): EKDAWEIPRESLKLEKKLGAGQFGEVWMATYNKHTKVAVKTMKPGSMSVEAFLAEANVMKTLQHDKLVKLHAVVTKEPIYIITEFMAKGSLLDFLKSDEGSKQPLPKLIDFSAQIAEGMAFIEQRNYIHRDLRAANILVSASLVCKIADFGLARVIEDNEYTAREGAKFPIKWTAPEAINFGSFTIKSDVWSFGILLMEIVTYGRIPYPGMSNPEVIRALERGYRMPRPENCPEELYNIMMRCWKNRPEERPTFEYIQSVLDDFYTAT

[3] = biological target: T2, TAK1(h)
[4] = biological target: BTK(R28H)(h) (human, UniProt Q06187 1-659)
BTK(R28H)(h), sequence (Q06187 whole entry R28H): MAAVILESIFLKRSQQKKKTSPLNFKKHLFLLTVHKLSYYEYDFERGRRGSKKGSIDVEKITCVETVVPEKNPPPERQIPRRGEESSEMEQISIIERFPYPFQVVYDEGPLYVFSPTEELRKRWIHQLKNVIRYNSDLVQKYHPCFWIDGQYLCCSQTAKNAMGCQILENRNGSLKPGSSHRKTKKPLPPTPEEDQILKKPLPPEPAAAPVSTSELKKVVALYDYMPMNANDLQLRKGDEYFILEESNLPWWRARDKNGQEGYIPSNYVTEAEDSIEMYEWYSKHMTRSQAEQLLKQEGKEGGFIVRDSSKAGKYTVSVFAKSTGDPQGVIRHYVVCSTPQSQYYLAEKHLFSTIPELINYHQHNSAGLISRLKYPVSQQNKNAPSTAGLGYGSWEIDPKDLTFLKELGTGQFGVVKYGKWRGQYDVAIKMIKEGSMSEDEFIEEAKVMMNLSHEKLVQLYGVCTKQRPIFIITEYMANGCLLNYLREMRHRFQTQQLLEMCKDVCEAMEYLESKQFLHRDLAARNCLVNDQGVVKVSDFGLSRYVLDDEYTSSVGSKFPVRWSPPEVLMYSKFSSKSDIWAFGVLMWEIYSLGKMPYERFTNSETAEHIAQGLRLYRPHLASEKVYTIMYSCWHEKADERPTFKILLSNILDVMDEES

[5] = biological target: Pim-1(h) (human, UniProt P11309 1-313)
Pim-1(h), sequence (P11309 whole entry): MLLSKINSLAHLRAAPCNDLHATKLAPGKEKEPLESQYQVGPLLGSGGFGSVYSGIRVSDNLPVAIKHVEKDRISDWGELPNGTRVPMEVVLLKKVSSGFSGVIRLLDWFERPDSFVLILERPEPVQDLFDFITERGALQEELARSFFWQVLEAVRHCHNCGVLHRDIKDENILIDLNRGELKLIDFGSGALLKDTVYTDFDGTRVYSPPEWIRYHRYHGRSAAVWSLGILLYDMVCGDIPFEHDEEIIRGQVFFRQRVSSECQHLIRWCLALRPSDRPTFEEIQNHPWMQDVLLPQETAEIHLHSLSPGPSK

[6] = biological target: MEK1(h) (human, UniProt Q02750 1-393)
[7] = biological target: T3, ALK4(h)
[8] = biological target: PAK4(h) (human, UniProt O96013 1-591, limits assumed)
PAK4(h), sequence (O96013 whole entry): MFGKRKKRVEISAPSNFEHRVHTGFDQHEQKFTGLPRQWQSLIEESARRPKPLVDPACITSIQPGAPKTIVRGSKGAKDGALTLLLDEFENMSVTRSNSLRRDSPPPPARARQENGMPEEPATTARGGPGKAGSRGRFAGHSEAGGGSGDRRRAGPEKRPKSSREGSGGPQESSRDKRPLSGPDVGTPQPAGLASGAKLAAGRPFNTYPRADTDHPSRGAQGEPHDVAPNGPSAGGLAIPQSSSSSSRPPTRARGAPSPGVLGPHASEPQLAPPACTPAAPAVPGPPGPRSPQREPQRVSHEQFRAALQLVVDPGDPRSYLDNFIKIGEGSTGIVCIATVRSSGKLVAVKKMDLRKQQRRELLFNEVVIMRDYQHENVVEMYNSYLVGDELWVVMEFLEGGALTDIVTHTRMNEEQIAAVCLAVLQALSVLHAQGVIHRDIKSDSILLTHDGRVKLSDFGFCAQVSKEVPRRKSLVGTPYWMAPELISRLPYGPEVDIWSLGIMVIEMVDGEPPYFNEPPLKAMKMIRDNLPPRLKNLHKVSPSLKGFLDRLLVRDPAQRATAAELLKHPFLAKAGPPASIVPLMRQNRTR

[9] = biological target: T4, Axl(h)
[10] = biological target: T5, DMPK(h)
[11] = biological target: T6, EphA5(h)

Row | Binder | % activity, 100 µM [1] | % activity, 100 µM [2] | % activity, 100 µM [3] | % activity, 100 µM [4] | % activity, 100 µM [5] | % activity, 100 µM [6] | % activity, 100 µM [7] | % activity, 100 µM [8] | % activity, 100 µM [9] | % activity, 100 µM [10] | % activity, 100 µM [11]
1 | FAKLAARLYRKALARQLGVAA [MMI-0300] | 82% | 82% | 122% | 74% | 8% | 77% | 140% | 94% | 52% | 59% | 18%
2 | KAFAKLAARLYRKALARQLGVAA [MMI-0400] | 73% | 81% | 177% | 24% | 7% | 77% | 130% | 89% | 41% | 54% | 24%
